The target of test [1] is HSV-1 glycoprotein D-Fc fusion protein (HSV-1) (UniProt Q69091). Kind of test: phage ELISA, glycoprotein D coated, anti-M13 HRP; well B2. A general note: ELISA stands for enzyme-linked immunosorbent assay.
The target is the same in test [2]. Kind of test: phage ELISA, glycoprotein D coated, anti-M13 HRP; well D2.
Test [3] has the same target. The test can be described thus: phage ELISA, glycoprotein D coated, anti-M13 HRP; well A6.
For test [4] the target is unchanged. The test can be described thus: SPR Biacore T200, single cycle kinetics, G-Fc captured on anti-human IgG, 1:1 fit.
The target is the same in test [5]. Kind of test: SPR Biacore T200, single cycle kinetics, G-Fc captured on anti-human IgG, 1:1 fit, second run.
Test [6] has the same target. Kind of test: phage ELISA, glycoprotein D coated, anti-M13 HRP; well D1.
The target is the same in test [7]. The test can be described thus: phage ELISA, glycoprotein D coated, anti-M13 HRP; well G11.
For test [8] the target is unchanged. Kind of test: phage ELISA, glycoprotein D coated, anti-M13 HRP; well F1.
The target is the same in test [9]. Kind of test: phage ELISA, glycoprotein D coated, anti-M13 HRP; well H8.
The target is the same in test [10]. The test can be described thus: SPR single-cycle kinetics, G-Fc captured on anti-human IgG, 25 C, 1:1 Binding fit; item G19, curve Fc=2-1; Table 6 calls the fit to the 1:1 model poor.
Test [11] has the same target. The test can be described thus: phage ELISA, glycoprotein D coated, anti-M13 HRP; well C3.
Test [12] has the same target. Kind of test: SPR single-cycle kinetics, G-Fc captured on anti-human IgG, 25 C, 1:1 Binding fit; item G19 2, curve Fc=3-1; Table 6 calls the fit to the 1:1 model poor.
For test [13] the target is unchanged. The test can be described thus: phage ELISA, glycoprotein D coated, anti-M13 HRP; well D6.
Test [14] has the same target. Kind of test: SPR, G-Fc captured on anti-human IgG; low end tied to G44 by Table 6. On the technique in general: SPR reads the build-up and loss of mass on a sensor chip optically.
The target is the same in test [15]. The test can be described thus: phage ELISA, glycoprotein D coated, anti-M13 HRP; well C6.
The target is the same in test [16]. The test can be described thus: phage ELISA, glycoprotein D coated, anti-M13 HRP; well C5.
The target is the same in test [17]. Kind of test: phage ELISA, glycoprotein D coated, anti-M13 HRP; well B4.
The target is the same in test [18]. Kind of test: phage ELISA, glycoprotein D coated, anti-M13 HRP; well H3.
Test [19] has the same target. Kind of test: phage ELISA, glycoprotein D coated, anti-M13 HRP; well D3.
Test [20] shares this target. Kind of test: phage ELISA, glycoprotein D coated, anti-M13 HRP; well D5.
The target is the same in test [21]. The test can be described thus: phage ELISA, glycoprotein D coated, anti-M13 HRP; well C8.
Test [22] has the same target. Kind of test: phage ELISA, glycoprotein D coated, anti-M13 HRP; well F3.
Test [23] has the same target. Kind of test: phage ELISA, glycoprotein D coated, anti-M13 HRP; well H1.
Test [24] has the same target. The test can be described thus: phage ELISA, glycoprotein D coated, anti-M13 HRP; well H5.

B1: 3G-10 (VHH)
VHH: QVQLVESGGGLVQPGGSLKLSCASSESIFAFKNYAMSWVRQAPGKGLEWVSTMSGGGGDTKYADSVKGRFTISRDNAKNTVYLQMNSLKPEDTAVYYCAKGWITTDQFASAPRGHGTQVTVSS
B1 showed an A450 nm in test [1] of 1.14.

B2: 3G-12 (VHH)
VHH: DVQLVESGGGLVQPGGSLRLSCAASGFSFSFKNYAMTWVRQAPGKGLEWVSTMSGGGDETKYADSVKGRFTISRDNTKNTLYLQMNSLKPEDTAVYYCAKGWITTDRFTNTPRGQGTQVTVSS
Consider B2, for which the A450 nm in [2] worked out at 1.01.

B3: 3-G-41_M13R (VHH, not shown: small tags and cut ends)
VHH: QVQLVESGGGLVQPGGSLRLSCAASGFSFSFKNYAMSWVRQAPGKGLEWVSTMSGGGGDIKYADSVKGRFTISRDNAKNTLYLQMNSLKPEDTAVYYCAKGWITTDQFTNTPRGQGTQVTVSS
As a reminder, the Kd is the free concentration of one partner at which half of the binding sites on the other are occupied at equilibrium, for simple one-to-one binding. The koff is a measure of how fast the partners let go of each other. Low readings indicate a long-lived complex, high ones a short-lived complex. For orientation: kon means the second-order rate constant of association. A high value points to fast association. For B3, the A450 nm in [3] was 0.805. In test [4], this molecule returned a Kd of 0.096 nM, a koff of 0.000274 s⁻¹ and a kon of 2.85e+06 M⁻¹ s⁻¹. In test [5], this molecule showed a Kd of 0.092 nM, a koff of 0.000279 s⁻¹ and a kon of 3.05e+06 M⁻¹ s⁻¹.

B4: 3G-4 (VHH)
VHH: QVKLEESGGGLVQPGGSLRLSCAASGFSFSFKNYAMSWVRQAPGKGLEWVSTMSGGGDETKYADSVKGRFTISRDNTKNTLYLQMNSLKPEDTAVYYCAKGWITTDRFTNTPRGQGTQVTVSS
B4 registered an A450 nm in test [6] of 1.09.

B5: 3G-87 (VHH)
VHH: DVQLVESGGGLVQPGGSLRLSCAASGFSFSFENYAMSWVRQAPGKGLEWVSTMSGGGGDTKYADSVKGRFTISRDNAKNMLYLQMNSLKPEDTAVYYCAKGWITTDRFTNTLRGQGTQVTVSS
B5 yielded an A450 nm in test [7] of 1.13.

B6: 3G-6 (VHH)
VHH: QVQLVESGGGLVQPGGSLRLSCTASGFSFSFKNYAMSWVRQAPGKGLEWVSTMSGGGGDTKYADSVKGRFTISRDNAKNTLYLQMNSLKPEDTAVYYCAKGWITTDRFTDTPRGQGTQVTVSS
With B6, the A450 nm in test [8] amounted to 0.951.

B7: 3G-64 (VHH)
VHH: QVQLVESGGGLVQPGGSLRLSCAASGFSFSFKNYAMSWVRQAPGKGLEWVSTMSGSGGDTKYADSVKGRFTISRDNAKNTLYLQMNSLKPEDTAVYYCAKGWITTDRFTDAPRGQGTQVTVSS
In test [9], B7 gave an A450 nm of 0.985.

B8: 3-G-19_M13R (VHH, not shown: small tags and cut ends)
VHH: QVKLEESGGGLVQPGGSLRLSCTASGFSFAFKDYAMSWVRQAPGKGLEWVSTMSGGGGDTKYADSVKGRFTISRDNNKNTVYLQMNSLKPEDTAVYYCAKGWITTNQFADAPRGQGTQVTVSS
In test [10], B8 yielded a dissociation constant (Kd) of 1.73 nM, an off-rate constant (koff) of 0.000368 s⁻¹ and a kon of 213000 M⁻¹ s⁻¹. Besides, in [11], the A450 nm came to 1.07. Further, in test [12], the dissociation constant (Kd) amounted to 1.71 nM, the koff amounted to 0.000368 s⁻¹ and the kon was 216000 M⁻¹ s⁻¹.

B9: 3-G-44_M13R (VHH, not shown: small tags and cut ends)
VHH: QVQLVESGGGLVQPGGSLRLSCTASGFSFAFKNYAMSWVRQAPGKGLEWVSTMSGGGGDTKYADSVKGRFTISRDNAKNAVYLQMNSLKPEDTAVYYCAKGWITTDQFATAPRGQGTQVTVSS
In test [4], B9 came in with an equilibrium dissociation constant (Kd) of 0.051 nM, a dissociation rate constant (koff) of 0.000281 s⁻¹ and a kon of 5.47e+06 M⁻¹ s⁻¹. The A450 nm in test [13] was 1.05. In test [5], this molecule showed a Kd of 0.048 nM, a dissociation rate constant (koff) of 0.000299 s⁻¹ and a kon of 6.2e+06 M⁻¹ s⁻¹. The Kd in test [14] was determined as 0.05 nM.

B10: 3G-43 (VHH)
VHH: AVQLVESGGGLVQPGGSLRLSCSASGFSFAFKNYAMSWVRQAPGKGLEWVSTMSGGGGDTKYADSVKGRFTISRDNNKNTVYLQMNSLKPEDTAVYYCAEGWITNNQFASAPRGQGTQVTVSS
Take B10: the A450 nm in test [15] was determined as 1.19.

B11: 3G-35 (VHH)
VHH: DVQLVDSGGGLVQPGGSLRLSCSASGFSSAFKNYAMSWVRQAPGKGLEWVSTMSGGGGDTKYADSVKGRFTISRDNNKNTVYLQMNSLKPEDTAVYYCAKGWITNNQFASAPRGQGTQVTVSS
Consider B11, for which the A450 nm in [16] was 1.13.

B12: 3G-26 (VHH)
VHH: QVQLVESGGGLVQPGGSLRLSCTASGFSFAFKNYAMSWVRQAPGKGLEWVSTMSGGGGDTKYADSVKGRFTISRDNAKNTVYLQMNSLKPEDTAVYYCAEGWITTDQFASAPRGQGTQVTVSS
With B12, the A450 nm in test [17] was found to be 0.892.

B13: 3G-24 (VHH)
VHH: QVKLEESGGGLAQPGGSLRLSCTASGFSFAFKNYAMSWVRQAPGKGLEWVSTMSGGGGDTKYADSVKGRFTISRDNAKNTVYLQMNSLKPEDTAVYYCAKGWITTDQFASAPRGHGTQVTVSS
As to B13, the A450 nm in test [18] was found to be 1.09.

B14: 3G-20 (VHH)
VHH: EVQLVESGGGLVQPGGSLTLSCAASGFSFSFENYAMSWVRQAPGKGLEWVSTMSGGGGDIKYADSVKGRFTISRDNAKNTLYLQMNNLKPEDSAVYYCAKGWITTNRLTNTPRGQGTQVTVSS
With B14, in test [19], the A450 nm was found to be 1.18.

B15: 3G-36 (VHH)
VHH: QVQLVESGGGLVQPGGSLTLSCAASGFSFSFENYAMSWVRQAPGKGLEWVSTMSGGGGDIKYADSVKGRFTISRDNAKNTLYLQMNNLKPEDSAVYYCAKGWITTNQFTNTPRGQGTQVTVSS
B15: in test [20], the A450 nm was 0.934.

B16: 3G-59 (VHH)
VHH: QVQLVESGGGLVQPGGSLTLSCAASGFSFSFENYAMSWVRQAPGKGLEWVSTMSGGGGDIKYADSVKGRFTISRDNAKNTLYLQMNNLKPEDSAVYYCAKGWITANRFTNTPRGQGTQVTVSS
Consider B16, for which the A450 nm in [21] is 1.16.

B17: 3G-22 (VHH)
VHH: QVQLVESGGGLVQPGGSLTLSCAASGFSFSFENYAMSWVRQAPGKGLEWVSTMSGGGGDIKYADSVKGRFTISRDNAKNTLYLQMNNLKPEDSAVYYCAKGWITTNRFTNIPRGQGTQVTVSS
On to B17, for which, in test [22], the A450 nm is 1.14.

B18: 3G-8 (VHH)
VHH: HVQLVESGGGLVQPGGSLTLSCAASGFSFSFENYAMSWVRQAPGKGLEWVSTMSGGGGDIKYADSVKGRFTISRDNAKNTLYLQMNNLKPEDSAVYYCAKGWITTNRFTNTPRGQGTQVTVSS
Consider B18, for which the A450 nm in [23] was found to be 0.933.

B19: 3G-40 (VHH)
VHH: QVKLEESGGGLAQPGGSLRLSCAASGFSFSFKNYAMSWVRQAPGKGLEWVSTMSGGGGDIKYADSVKGRFTISRDNAKNTLYLQMNSLKPEDTAVYYCAKGWIATDQFTNTPRGQGTQVTVSS
Molecule B19 registered an A450 nm in test [24] of 1.09.
